Reference: US20200024322A1 (Eli Lilly, published 2020)
Where a chain is given by its changes, count along the chain named.

T1: human GIP receptor (human, UniProt P48546 22-466)
T1 construct: whole, on cells; also called hGIPR; hGIP-R
T1 sequence (looked up): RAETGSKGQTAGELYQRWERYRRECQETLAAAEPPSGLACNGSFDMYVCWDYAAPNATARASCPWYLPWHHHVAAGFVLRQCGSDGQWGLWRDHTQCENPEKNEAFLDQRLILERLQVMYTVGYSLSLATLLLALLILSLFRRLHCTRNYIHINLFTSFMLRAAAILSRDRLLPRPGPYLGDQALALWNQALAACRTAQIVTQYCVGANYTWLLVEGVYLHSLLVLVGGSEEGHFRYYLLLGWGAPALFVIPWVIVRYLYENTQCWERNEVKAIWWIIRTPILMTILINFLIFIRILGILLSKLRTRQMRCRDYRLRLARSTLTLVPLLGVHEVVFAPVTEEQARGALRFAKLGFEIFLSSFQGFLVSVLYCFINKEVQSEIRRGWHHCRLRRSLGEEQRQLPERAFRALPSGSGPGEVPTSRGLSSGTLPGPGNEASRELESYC

B1: Example 220 (peptide)
peptide: YXEGTXTSDYSIXLDEKAQXEFIXYLIEGG
modifications: Aib2; αMeF(2F)6; αMeL13; K17((2-[2-(2-Amino-ethoxy)-ethoxy]-acetyl)2-(γ-Glu)-CO-(CH2)16-CO2H); Aib20; D-Glu24; C-terminal NH2
B2: Example 219 (peptide)
peptide: YXEGTXTSDYSIXLDEKAQXEFIXYLIEGGPSSG
modifications: Aib2; αMeF(2F)6; αMeL13; K17((2-[2-(2-Amino-ethoxy)-ethoxy]-acetyl)2-(γ-Glu)-CO-(CH2)16-CO2H); Aib20; D-Glu24; C-terminal NH2
B3: Example 264 (peptide)
peptide: B2 peptide with Y10X, E16X, Y25X
modifications: Aib2; αMeF(2F)6; 4Pal10; αMeL13; Orn16; K17((2-[2-(2-Amino-ethoxy)-ethoxy]-acetyl)2-(γ-Glu)-CO-(CH2)16-CO2H); Aib20; D-Glu24; αMeY25; C-terminal NH2
B4: Example 228 (peptide)
peptide: B2 peptide with E16K
modifications: Aib2; αMeF6; αMeL13; K17((2-[2-(2-Amino-ethoxy)-ethoxy]-acetyl)2-(γ-Glu)-CO-(CH2)18-CO2H); Aib20; D-Glu24; C-terminal NH2
B5: Example 254 (peptide)
peptide: YXEGTFTSDYSILLDKKAQQAFIEYLIEGGPSSGAPPPS
modifications: Aib2; K17((2-[2-(2-Amino-ethoxy)-ethoxy]-acetyl)2-(γ-Glu)-CO-(CH2)18-CO2H); C-terminal NH2
B6: Example 255 (peptide)
peptide: B5 peptide with Q20H
modifications: Aib2; K17((2-[2-(2-Amino-ethoxy)-ethoxy]-acetyl)2-(γ-Glu)-CO-(CH2)18-CO2H); C-terminal NH2
B7: Example 265 (peptide)
peptide: B1 peptide with Y10X, E16X, Y25X
modifications: Aib2; αMeF(2F)6; 4Pal10; αMeL13; Orn16; K17((2-[2-(2-Amino-ethoxy)-ethoxy]-acetyl)2-(γ-Glu)-CO-(CH2)16-CO2H); Aib20; D-Glu24; αMeY25; C-terminal NH2
B8: Example 214 (peptide)
peptide: YXEGTXTSDYSIXLDEKAQXEFIXYLIEGGPSSGAPPPS
modifications: Aib2; αMeF(2F)6; αMeL13; K17((2-[2-(2-Amino-ethoxy)-ethoxy]-acetyl)2-CO-(CH2)16-CO2H); Aib20; D-Glu24; C-terminal NH2
B9: Example 222 (peptide)
peptide: B8 peptide with Y25X
modifications: Aib2; αMeF(2F)6; αMeL13; K17((2-[2-(2-Amino-ethoxy)-ethoxy]-acetyl)2-(γ-Glu)-CO-(CH2)18-CO2H); Aib20; D-Glu24; αMeY25; C-terminal NH2
B10: Example 251 (peptide)
peptide: B8 peptide with Y10X, E16X, E21A, Y25X
modifications: Aib2; αMeF(2F)6; 4Pal10; αMeL13; Orn16; K17((2-[2-(2-Amino-ethoxy)-ethoxy]-acetyl)2-(εK)-CO-(CH2)18-CO2H); Aib20; D-Glu24; αMeY25; C-terminal NH2
B11: Example 223 (peptide)
peptide: B8 peptide with X24E, Y25X
modifications: Aib2; αMeF(2F)6; αMeL13; K17((2-[2-(2-Amino-ethoxy)-ethoxy]-acetyl)2-(γ-Glu)-CO-(CH2)18-CO2H); Aib20; αMeY25; C-terminal NH2
B12: Example 226 (peptide)
peptide: B8 peptide with X13L
modifications: Aib2; αMeF(2F)6; K17((2-[2-(2-Amino-ethoxy)-ethoxy]-acetyl)2-(γ-Glu)-CO-(CH2)18-CO2H); Aib20; D-Glu24; C-terminal NH2
B13: Example 227 (peptide)
peptide: B8 peptide
modifications: Aib2; αMeF6; αMeL13; K17((2-[2-(2-Amino-ethoxy)-ethoxy]-acetyl)2-(γ-Glu)-CO-(CH2)18-CO2H); Aib20; D-Glu24; C-terminal NH2
B14: Example 215 (peptide)
peptide: B8 peptide
modifications: Aib2; αMeF(2F)6; αMeL13; K17((2-[2-(2-Amino-ethoxy)-ethoxy]-acetyl)2-CO-(CH2)18-CO2H); Aib20; D-Glu24; C-terminal NH2
B15: Example 217 (peptide)
peptide: B8 peptide with E16X
modifications: Aib2; αMeF(2F)6; αMeL13; Dab16; K17((2-[2-(2-Amino-ethoxy)-ethoxy]-acetyl)2-(γ-Glu)-CO-(CH2)18-CO2H); Aib20; D-Glu24; C-terminal NH2
B16: Example 250 (peptide)
peptide: B8 peptide with E16X
modifications: Aib2; αMeF(2F)6; Aib13; Orn16; K17((2-[2-(2-Amino-ethoxy)-ethoxy]-acetyl)2-(γ-Glu)-CO-(CH2)18-CO2H); Aib20; D-Glu24; C-terminal NH2
B17: Example 216 (peptide)
peptide: B8 peptide
modifications: Aib2; αMeF(2F)6; αMeL13; K17((2-[2-(2-Amino-ethoxy)-ethoxy]-acetyl)2-(εK)-CO-(CH2)18-CO2H); Aib20; D-Glu24; C-terminal NH2
B18: Example 224 (peptide)
peptide: B8 peptide
modifications: Aib2; αMeF(2F)6; Aib13; K17((2-[2-(2-Amino-ethoxy)-ethoxy]-acetyl)2-(γ-Glu)-CO-(CH2)18-CO2H); Aib20; D-Glu24; C-terminal NH2
B19: Example 218 (peptide)
peptide: B8 peptide with E16X
modifications: Aib2; αMeF(2F)6; αMeL13; Dap16; K17((2-[2-(2-Amino-ethoxy)-ethoxy]-acetyl)2-(γ-Glu)-CO-(CH2)18-CO2H); Aib20; D-Glu24; C-terminal NH2
B20: Example 225 (peptide)
peptide: B8 peptide
modifications: Aib2; αMeF6; Aib13; K17((2-[2-(2-Amino-ethoxy)-ethoxy]-acetyl)2-(γ-Glu)-CO-(CH2)18-CO2H); Aib20; D-Glu24; C-terminal NH2
B21: Example 221 (peptide)
peptide: B8 peptide
modifications: Aib2; αMeF(2F)6; αMeL13; K17((2-[2-(2-Amino-ethoxy)-ethoxy]-acetyl)2-(γ-Glu)-CO-(CH2)16-CO2H); Aib20; D-Glu24; C-terminal NH2
B22: Example 240 (peptide)
peptide: B8 peptide with Y10X, E16X, E21A, Y25X
modifications: Aib2; αMeF(2F)6; 4Pal10; αMeL13; Orn16; K17((2-[2-(2-Amino-ethoxy)-ethoxy]-acetyl)2-(γ-Glu)-CO-(CH2)16-CO2H); Aib20; D-Glu24; αMeY25; C-terminal NH2
B23: Example 238 (peptide)
peptide: B8 peptide with Y10L, E16X, Y25X
modifications: Aib2; αMeF(2F)6; αMeL13; Orn16; K17((2-[2-(2-Amino-ethoxy)-ethoxy]-acetyl)2-(γ-Glu)-CO-(CH2)16-CO2H); Aib20; D-Glu24; αMeY25; C-terminal NH2
B24: Example 236 (peptide)
peptide: B8 peptide with E16X, Y25X
modifications: Aib2; αMeF(2F)6; αMeL13; Orn16; K17((2-[2-(2-Amino-ethoxy)-ethoxy]-acetyl)2-(γ-Glu)-CO-(CH2)16-CO2H); Aib20; D-Glu24; αMeY25; C-terminal NH2
B25: Example 252 (peptide)
peptide: YXEGTXTSDXSIXLDXKAQXAFIXXLIAGGPSSGAPPPS
modifications: Aib2; αMeF(2F)6; 4Pal10; αMeL13; Orn16; K17((2-[2-(2-Amino-ethoxy)-ethoxy]-acetyl)2-(εK)-CO-(CH2)18-CO2H); Aib20; D-Glu24; αMeY25; C-terminal NH2
B26: Example 239 (peptide)
peptide: B25 peptide with A21T, A28E
modifications: Aib2; αMeF(2F)6; 4Pal10; αMeL13; Orn16; K17((2-[2-(2-Amino-ethoxy)-ethoxy]-acetyl)2-(γ-Glu)-CO-(CH2)16-CO2H); Aib20; D-Glu24; αMeY25; C-terminal NH2
B27: Example 242 (peptide)
peptide: B25 peptide with X10V, A28E
modifications: Aib2; αMeF(2F)6; αMeL13; Orn16; K17((2-[2-(2-Amino-ethoxy)-ethoxy]-acetyl)2-(γ-Glu)-CO-(CH2)16-CO2H); Aib20; D-Glu24; αMeY25; C-terminal NH2
B28: Example 243 (peptide)
peptide: B25 peptide with X10L, A21T, A28E
modifications: Aib2; αMeF(2F)6; αMeL13; Orn16; K17((2-[2-(2-Amino-ethoxy)-ethoxy]-acetyl)2-(γ-Glu)-CO-(CH2)16-CO2H); Aib20; D-Glu24; αMeY25; C-terminal NH2
B29: Example 241 (peptide)
peptide: B25 peptide with X10V, A21T, A28E
modifications: Aib2; αMeF(2F)6; αMeL13; Orn16; K17((2-[2-(2-Amino-ethoxy)-ethoxy]-acetyl)2-(γ-Glu)-CO-(CH2)16-CO2H); Aib20; D-Glu24; αMeY25; C-terminal NH2
B30: Example 244 (peptide)
peptide: B25 peptide with X10L, A28E
modifications: Aib2; αMeF(2F)6; αMeL13; Orn16; K17((2-[2-(2-Amino-ethoxy)-ethoxy]-acetyl)2-(γ-Glu)-CO-(CH2)16-CO2H); Aib20; D-Glu24; αMeY25; C-terminal NH2

How the values were obtained:
human GLP-1 receptor = molecular target: T2, human GLP-1 receptor (human, UniProt P43220 24-463); assay: [125I]-GLP-1 competition SPA, hGLP-1R membranes
T2 construct: whole, on cells; also called hGLP-1R; hGLP1R
Summary of the method: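 Competition binding in 25 mM HEPES pH 7.4, 2.5 mM CaCl₂, 1 mM MgCl₂, 0.1% bacitracin, 0.003% TWEEN-20, EDTA-free protease inhibitors. IC₅₀ from four-parameter nonlinear fit; Kᵢ given as geometric mean ± SEM, n = independent replicates on different days.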

human glucagon receptor = molecular target: T3, human glucagon receptor (human, UniProt P47871 26-477); assay: [125I]-Gcg competition SPA, hGcgR membranes
T3 construct: whole, on cells; also called hGcgR; GcgR

human GIP receptor = molecular target: T1, human GIP receptor; assay: [125I]-GIP competition SPA, hGIPR membranes

T3 sequence (P47871 26-477): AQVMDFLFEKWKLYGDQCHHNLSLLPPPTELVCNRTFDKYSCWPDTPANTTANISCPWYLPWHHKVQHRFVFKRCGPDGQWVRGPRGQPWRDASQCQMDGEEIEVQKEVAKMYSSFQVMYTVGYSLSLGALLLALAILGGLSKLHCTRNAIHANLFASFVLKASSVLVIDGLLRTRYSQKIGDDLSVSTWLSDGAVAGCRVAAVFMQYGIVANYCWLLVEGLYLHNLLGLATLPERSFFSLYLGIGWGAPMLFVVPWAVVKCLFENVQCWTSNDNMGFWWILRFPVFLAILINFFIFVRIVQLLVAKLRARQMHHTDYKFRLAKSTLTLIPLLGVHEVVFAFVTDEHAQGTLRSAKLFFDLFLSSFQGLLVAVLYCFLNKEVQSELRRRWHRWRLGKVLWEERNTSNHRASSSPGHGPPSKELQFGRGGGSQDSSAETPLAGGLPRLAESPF

| Binder | Ki (human GLP-1 receptor) [nM] | Ki (human glucagon receptor) [nM] | Ki (human GIP receptor) [nM] |
| --- | --- | --- | --- |
| B1 | 2.71 | 377 | 0.0919 |
| B2 | 2.01 | 373 | 0.0689 |
| B3 | 0.412 | 388 | 0.015 |
| B4 | 2.43 | 182 | 0.028 |
| B5 | 2.58 | 148 | 0.108 |
| B6 | 2.58 | 257 | 0.0772 |
| B7 | 0.537 | 567 | 0.0224 |
| B8 | 1.99 | 126 | 0.0304 |
| B9 | 3.59 | 71.3 | 0.0495 |
| B10 | 1.09 | 21.2 | 0.0249 |
| B11 | 5.62 | 46.5 | 0.0921 |
| B12 | 4.1 | 200 | 0.0254 |
| B13 | 2.01 | 113 | 0.0146 |
| B14 | 6.85 | 75.2 | 0.0666 |
| B15 | 2.02 | 516 | 0.0376 |
| B16 | 1.72 | 198 | 0.0171 |
| B17 | 2.34 | 45.2 | 0.0559 |
| B18 | 6.86 | 627 | 0.0482 |
| B19 | 2.54 | 270 | 0.0593 |
| B20 | 8.79 | 714 | 0.0622 |
| B21 | 1.77 | 154 | 0.0414 |
| B22 | 0.552 | 204 | 0.0284 |
| B23 | 0.548 | 230 | 0.0403 |
| B24 | 1.05 | 200 | 0.0425 |
| B25 | 0.383 | 26 | 0.00971 |
| B26 | 2.71 | 596 | 0.101 |
| B27 | 0.853 | 95.9 | 0.0604 |
| B28 | 0.67 | 145 | 0.0325 |
| B29 | 0.799 | 167 | 0.042 |
| B30 | 0.82 | 87.8 | 0.0308 |
